Laboratory results reported in patent US20060020109A1 (Harvard, published 2006).

Experiments:
[1] = biological target: HLA-DR2 (DRB1*1501) on antigen presenting cells (MGAR, L466) (human); assay: cell-based or functional assay
[2] = biological target: T1, soluble recombinant HLA-DR2 molecules (MHC class II HLA-DR2 protein) (human); assay: competition ELISA on soluble HLA-DR2; competitor biotinylated Cop 1 (1.5 µM)
T1 construct: Soluble, empty protein from Drosophila S2 cells, captured on plates by antibody LB3.1; also called MHC class II DR2 protein; recombinant HLA-DR2 protein

Row | Binder | Inhibition of IL-2 production (%), Hy1B [1] [%] | IC50 [2] [µM]
1 | AKAAAAEYAAAAAAA [synthetic peptide #51] | 3 | > 1000
2 | AAAEYKAYAAAAAAA [synthetic peptide #70] | 24 | > 1000
3 | AEAEYKAYAAAAAAA [synthetic peptide #66] | 43 | > 1000
4 | AAEEYKAYAAAAAAA [synthetic peptide #61] | 35 | > 1000
5 | AAEKYAAYAAAAAAA [synthetic peptide #55] | 30 | > 1000
6 | AAEAVAAAAAAAAAA [synthetic peptide #118] | 38 | > 1000
7 | EKEAYAAYAAAAAAA [synthetic peptide #73] | 23 | > 1000
8 | EKKAYAAAAAAAAAA [synthetic peptide #41] | 7 | > 1000
9 | EKEAAAAYAAAAAAA [synthetic peptide #46] | 0 | > 1000
10 | AEAKYAAYKAAAAAA [synthetic peptide #79] | 50 | > 1000
11 | AKAEYAAYKAAAAAA [synthetic peptide #81] | 28 | > 1000
12 | AAAKYAAAAAAAAAA [synthetic peptide #115] | 25 | > 1000
13 | AAEKYAAYKAAAAAA [synthetic peptide #77] | 61 | > 1000
14 | AAAKVAAAAAAAAAA [synthetic peptide #116] | 30 | > 1000
15 | AKEAYAAYAAAAAAA [synthetic peptide #57] | 0 | > 1000
16 | EAEAYAAYKAAAAAA [synthetic peptide #88] | 55 | > 1000
17 | EKAAYAAAAAAAAAA [synthetic peptide #44] | 0 | > 1000
18 | AAKKYEAYAAAAAAA [synthetic peptide #68] | 41 | > 1000
19 | AKEAYAAAAAAAAAA [synthetic peptide #39] | 32 | > 1000
20 | EAAKYAAYKAAAAAA [synthetic peptide #85] | 25 | > 1000
21 | AKEKYAAYAAAAAAA [synthetic peptide #63] | 29 | > 1000
22 | AEAKYEAYAAAAAAA [synthetic peptide #67] | 41 | > 1000
23 | AEEAYAAYKAAAAAA [synthetic peptide #80] | 30 | > 1000
24 | EAEKYAAYAAAAAAA [synthetic peptide #71] | 25 | > 1000
25 | EAKAYAAYAAAAAAA [synthetic peptide #75] | 19 | > 1000
26 | EEAKYAAYKAAAAAA [synthetic peptide #91] | 54 | > 1000
27 | AAEKAAAAAAAAAAA [synthetic peptide #119] | 26 | > 1000
28 | AAEAYAAAAAAAAAA [synthetic peptide #117] | 25 | > 1000
